From article PMC5739284 come the findings set out here.

This assay has as its target His6-sPfUIS3 (recombinant His-tagged soluble P. falciparum UIS3, wild type) (P. falciparum). Briefly: SPR.

Take “GST-His6-LC3B (recombinant) (from UniProt Q9GZQ8 1-120) (natural protein)”: the Kd is 244 nM.
